Target: Rad50 (Homo sapiens (Human)) (UniProt Q92878)
Experiment: SILAC LC-MS/MS of anti-Flag immunoprecipitate, heavy (EVI1-Flag) over light (Flag control)

UniProt Q92878, sequence (Q92878 whole entry): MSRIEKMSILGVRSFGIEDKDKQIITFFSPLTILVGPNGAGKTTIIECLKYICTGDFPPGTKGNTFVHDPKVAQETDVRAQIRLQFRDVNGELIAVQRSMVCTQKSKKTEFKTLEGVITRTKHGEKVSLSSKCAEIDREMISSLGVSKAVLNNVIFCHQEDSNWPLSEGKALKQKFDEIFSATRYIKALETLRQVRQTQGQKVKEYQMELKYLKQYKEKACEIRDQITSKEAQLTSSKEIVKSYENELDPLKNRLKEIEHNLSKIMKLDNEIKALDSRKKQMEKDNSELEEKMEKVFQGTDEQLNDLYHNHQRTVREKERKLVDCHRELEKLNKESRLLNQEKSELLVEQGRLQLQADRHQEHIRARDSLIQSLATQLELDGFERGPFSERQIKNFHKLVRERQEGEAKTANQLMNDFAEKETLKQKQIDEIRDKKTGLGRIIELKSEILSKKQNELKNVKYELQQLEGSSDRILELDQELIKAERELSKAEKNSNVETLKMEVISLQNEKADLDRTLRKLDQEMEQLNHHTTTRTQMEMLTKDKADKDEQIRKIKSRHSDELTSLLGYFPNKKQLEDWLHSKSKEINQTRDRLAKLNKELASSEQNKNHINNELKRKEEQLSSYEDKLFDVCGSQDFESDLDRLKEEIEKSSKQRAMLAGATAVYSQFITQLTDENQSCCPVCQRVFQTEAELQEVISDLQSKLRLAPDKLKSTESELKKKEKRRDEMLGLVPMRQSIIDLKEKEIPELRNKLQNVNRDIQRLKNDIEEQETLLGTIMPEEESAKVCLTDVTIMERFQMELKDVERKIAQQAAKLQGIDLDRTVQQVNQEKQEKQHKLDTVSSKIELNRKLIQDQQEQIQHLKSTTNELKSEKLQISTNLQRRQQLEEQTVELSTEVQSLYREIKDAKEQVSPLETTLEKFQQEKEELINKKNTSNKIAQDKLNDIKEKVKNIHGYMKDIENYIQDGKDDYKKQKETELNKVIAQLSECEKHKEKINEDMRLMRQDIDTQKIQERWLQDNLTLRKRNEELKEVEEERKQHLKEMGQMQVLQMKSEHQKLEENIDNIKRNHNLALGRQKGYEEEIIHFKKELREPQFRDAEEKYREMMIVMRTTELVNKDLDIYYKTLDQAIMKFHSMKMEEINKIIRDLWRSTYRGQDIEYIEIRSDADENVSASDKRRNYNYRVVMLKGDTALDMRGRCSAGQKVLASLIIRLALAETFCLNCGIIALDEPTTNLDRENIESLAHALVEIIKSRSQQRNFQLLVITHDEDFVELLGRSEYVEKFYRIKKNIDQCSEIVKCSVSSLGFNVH

## EVI1-Flag construct (Evi1 protein with Flag tag, expressed in SKOV3 cells) (from UniProt Q03112 1-1051)
  Evi1 enrichment (H/L ratio): 7.11 to 47.8 H/L ratio

— patent US20170322217A1
